B1: EMC1-FLAG [human] / TMEM38B, Strep-tagged [not stated] (parent)
chain 1: YEDQVGKFDWRQQYVGKVKFASLEFSPGSKKLVVATEKNVIAALNSRTGEILWRHVDKGTAEGAVDAMLLHGQDVITVSNGGRIMRSWETNIGGLNWEITLDSGSFQALGLVGLQESVRYIAVLKKTTLALHHLSSGHLKWVEHLPESDSIHYQMVYSYGSGVVWALGVVPFSHVNIVKFNVEDGEIVQQVRVSTPWLQHLSGACGVVDEAVLVCPDPSSRSLQTLALETEWELRQIPLQSLDLEFGSGFQPRVLPTQPNPVDASRAQFFLHLSPSHYALLQYHYGTLSLLKNFPQTALVSFATTGEKTVAAVMACRNEVQKSSSSEDGSMGSFSEKSSSKDSLACFNQTYTINLYLVETGRRLLDTTITFSLEQSGTRPERLYIQVFLKKDDSVGYRALVQTEDHLLLFLQQLAGKVVLWSREESLAEVVCLEMVDLPLTGAQAELEGEFGKKADGLLGMFLKRLSSQLILLQAWTSHLWKMFYDARKPRSQIKNEINIDTLARDEFNLQKMMVMVTASGKLFGIESSSGTILWKQYLPNVKPDSSFKLMVQRTTAHFPHPPQCTLLVKDKESGMSSLYVFNPIFGKWSQVAPPVLKRPILQSLLLPVMDQDYAKVLLLIDDEYKVTAFPATRNVLRQLHELAPSIFFYLVDAEQGRLCGYRLRKDLTTELSWELTIPPEVQRIVKVKGKRSSEHVHSQGRVMGDRSVLYKSLNPNLLAVVTESTDAHHERTFIGIFLIDGVTGRIIHSSVQKKAKGPVHIVHSENWVVYQYWNTKARRNEFTVLELYEGTEQYNATAFSSLDRPQLPQVLQQSYIFPSSISAMEATITERGITSRHLLIGLPSGAILSLPKALLDPRRPEIPTEQSREENLIPYSPDVQIHAERFINYNQTVSRMRGIYTAPSGLESTCLVVAYGLDIYQTRVYPSKQFDVLKDDYDYVLISSVLFGLVFATMITKRLAQVKLLNRAWR
chain 2: MDSPWDELALAFSRTSMFPFFDIAHYLVSVMAVKRQPGAAALAWKNPISSWFTAMLHCFGGGILSCLLLAEPPLKFLANHTNILLASSIWYITFFCPHDLVSQGYSYLPVQLLASGMKEVTRTWKIVGGVTHANSYYKNGWIVMIAIGWARGAGGTIITNFERLVKGDWKPEGDEWLKMSYPAKVTLLGSVIFTFQHTQHLAISKHNLMFLYTIFIVATKITMMTTQTSTMTFAPFEDTLSWMLFGWQQPFSSCEKKSEAKSPSNGVGSLASKPVDVASDNVKKKHTKKNE
B2: EMC1-FLAG [human] / BCAP31, Strep-tagged [not stated] (parent)
chain 1: B1 chain 1
chain 2: MSLQWTAVATFLYAEVFVVLLLCIPFISPKRWQKIFKSRLVELLVSYGNTFFVVLIVILVLLVIDAVREIRKYDDVTEKVNLQNNPGAMEHFHMKLFRAQRNLYIAGFSLLLSFLLRRLVTLISQQATLLASNEAFKKQAESASEAAKKYMEENDQLKKGAAVDGGKLDVGNAEVKLEEENRSLKADLQKLKDELASTKQKLEKAENQVLAMRKQSEGLTKEYDRLLEEHAKLQAAVDGPMDKKEE
B3: EMC1-FLAG [human] / SLC3A2, Strep-tagged [not stated] (parent)
chain 1: B1 chain 1
chain 2: MSQDTEVDMKEVELNELEPEKQPMNAASGAAMSLAGAEKNGLVKIKVAEDEAEAAAAAKFTGLSKEELLKVAGSPGWVRTRWALLLLFWLGWLGMLAGAVVIIVRAPRCRELPAQKWWHTGALYRIGDLQAFQGHGAGNLAGLKGRLDYLSSLKVKGLVLGPIHKNQKDDVAQTDLLQIDPNFGSKEDFDSLLQSAKKKSIRVILDLTPNYRGENSWFSTQVDTVATKVKDALEFWLQAGVDGFQVRDIENLKDASSFLAEWQNITKGFSEDRLLIAGTNSSDLQQILSLLESNKDLLLTSSYLSDSGSTGEHTKSLVTQYLNATGNRWCSWSLSQARLLTSFLPAQLLRLYQLMLFTLPGTPVFSYGDEIGLDAAALPGQPMEAPVMLWDESSFPDIPGAVSANMTVKGQSEDPGSLLSLFRRLSDQRSKERSLLHGDFHAFSAGPGLFSYIRHWDQNERFLVVLNFGDVGLSAGLQASDLPASASLPAKADLLLSTQPGREEGSPLELERLKLEPHEGLLLRFPYAA

Variants of B1 are the subject of the first experiment. Description: co-IP and immunoblot (quantified). Conditions: with TMEM38B, read off a plot.
For chain 1 F948A F952A, the ratio to parent is 0.4.
In the case of chain 1 V941K S944K S945K, the ratio to parent is 0.78.

Variants of B2 are the subject of another experiment. Description: co-IP and immunoblot (quantified). Conditions: with BCAP31, Strep-tagged;; read off a plot.
For the variant chain 1 F948A F952A, the ratio to parent came to 0.75.
The same measure, in the same setting: under chain 1 V941K S944K S945K stands 0.57.

In another experiment the parent is B3. As to the kind of experiment: co-IP and immunoblot (quantified). To be noted: with SLC3A2, Strep-tagged;; read off a plot.
As for chain 1 V941K S944K S945K, the ratio to parent was found to be 0.51.
Same read-out and setting: under chain 1 F948A F952A stands 0.87.

Source of the values: publication PMC12317982.
